T1: GST-ER-α66 fusion protein (UniProt P03372 1-595)
T1 sequence (looked up): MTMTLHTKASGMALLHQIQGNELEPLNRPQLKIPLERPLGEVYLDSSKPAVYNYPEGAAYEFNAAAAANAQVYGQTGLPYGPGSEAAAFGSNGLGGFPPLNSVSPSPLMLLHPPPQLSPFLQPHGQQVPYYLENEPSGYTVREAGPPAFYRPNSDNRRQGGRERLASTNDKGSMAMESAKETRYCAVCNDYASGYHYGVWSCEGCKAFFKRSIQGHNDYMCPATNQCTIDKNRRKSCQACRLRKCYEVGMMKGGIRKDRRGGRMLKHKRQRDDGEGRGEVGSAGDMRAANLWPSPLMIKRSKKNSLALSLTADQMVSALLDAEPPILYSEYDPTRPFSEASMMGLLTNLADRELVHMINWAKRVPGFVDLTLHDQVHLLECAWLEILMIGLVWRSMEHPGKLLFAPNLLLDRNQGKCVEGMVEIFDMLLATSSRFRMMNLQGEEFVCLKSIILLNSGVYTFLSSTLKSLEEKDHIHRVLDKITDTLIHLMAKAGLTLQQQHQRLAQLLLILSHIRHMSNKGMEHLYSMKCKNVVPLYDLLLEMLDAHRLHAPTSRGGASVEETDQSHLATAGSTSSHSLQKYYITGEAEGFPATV

B1: recombinant human His-tag-PRMT2 protein (protein arginine N-methyltransferase 2) (enzyme, UniProt P55345-1 1-433, looked up)
chain: MATSGDCPRSESQGEEPAECSEAGLLQEGVQPEEFVAIADYAATDETQLSFLRGEKILILRQTTADWWWGERAGCCGYIPANHVGKHVDEYDPEDTWQDEEYFGSYGTLKLHLEMLADQPRTTKYHSVILQNKESLTDKVILDVGCGTGIISLFCAHYARPRAVYAVEASEMAQHTGQLVLQNGFADIITVYQQKVEDVVLPEKVDVLVSEWMGTCLLFEFMIESILYARDAWLKEDGVIWPTMAALHLVPCSADKDYRSKVLFWDNAYEFNLSALKSLAVKEFFSKPKYNHILKPEDCLSEPCTILQLDMRTVQISDLETLRGELRFDIRKAGTLHGFTAWFSVHFQSLQEGQPPQVLSTGPFHPTTHWKQTLFMMDDPVPVHTGDVVTGSVVLQRNPVWRRHMSVALSWAVTSRQDPTSQKVGEKVFPIWR

Key:
[1] = target: T1, GST-ER-α66 fusion protein; experiment: pull-down
[2] = target: B1; experiment: pull-down

Row | binding result [1] | binding result [2] | Binder
1 | binds |  | B1
2 |  | binds | GST-ER-α36 fusion protein (receptor, UniProt P03372-4 1-310, looked up) MAMESAKETRYCAVCNDYASGYHYGVWSCEGCKAFFKRSIQGHNDYMCPATNQCTIDKNRRKSCQACRLRKCYEVGMMKGGIRKDRRGGRMLKHKRQRDDGEGRGEVGSAGDMRAANLWPSPLMIKRSKKNSLALSLTADQMVSALLDAEPPILYSEYDPTRPFSEASMMGLLTNLADRELVHMINWAKRVPGFVDLTLHDQVHLLECAWLEILMIGLVWRSMEHPGKLLFAPNLLLDRNQGKCVEGMVEIFDMLLATSSRFRMMNLQGEEFVCLKSIILLNSGISHVEAKKRILNLHPKIFGNKWFPRV

Source: paper PMC5983932 (Oncology Reports, 2018)
